# The supplement of paper PMC6755084
# B1: F1*; the commonest letter at each place (parent)
# chain: GAGACCGCAACTGAAAAGTTGTTATCACTTGTCGTAAGACACTTTGGATGGGTTGAAGTTCTGCACGTAGAAGCAAAAGGC
# B2: minF1; a variant is named by its letters at N, in order (parent)
# chain: GAGACCGCAACTGAAAAGTTGTTNNNNAANNNNGGNTNNATTTCTGCACGTAGAAGCAAAAGGC
# Variants of: B1
# Assay: fraction ligated after 30 min (ligated reads / total reads); higher = more ligase activity
# Details: with F1*sub RNA substrate (template-directed ligation), 42 °C
# How it was run: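 Oligo-pool templates of ligase ribozyme variants were PCR-amplified, T7-transcribed and gel-purified. Ligated and unligated bands were gel-separated, reverse transcribed with barcoded primers, and MiSeq-sequenced; core bases were filtered at quality ≥20. Fraction ligated per variant was ligated reads over total reads.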
row,Variant,fraction ligated
1,G55A A56G,0.821
2,G55A A56T,0.8
3,G55A A56C,0.729
4,G55C,0.778
5,G55T,0.83
6,G55A,0.822
7,G50C A56T,0.0147
8,G50C A56G,0.0166
9,G50C A56C,0.00754
10,G55T A57G,0.791
11,G55T A57T,0.794
12,G55T A57C,0.717
13,A56G A57T,0.383
14,A56G A57G,0.807
15,A56G A57C,0.748
16,G52C,0.726
17,G52T,0.695
18,G52A,0.827
19,G55A A56G A57C,0.131
20,G55A A56G A57T,0.152
21,G55A A56G A57G,0.338
22,G55C A56G A57T,0.0232
23,G55C A56G A57G,0.0448

row,Variant,fraction ligated
1,G55C A56G A57C,0.104
2,G50A G55A,0.178
3,G50A G55C,0.0427
4,G50A G55T,0.0307
5,G55A A56T A57G,0.143
6,G55A A56T A57T,0.161
7,G55A A56T A57C,0.0139
8,G50T A56G,0.0624
9,G50T A56T,0.0827
10,G50T A56C,0.0586
11,G58C,0.767
12,G58A,0.851
13,G58T,0.834
14,G50C G55T,0.0259
15,G50C G55C,0.0221
16,G50C G55A,0.112
17,G55T A56G,0.806
18,G55T A56C,0.014
19,G55T A56T,0.378
20,T49G G55C,0.136
21,T49G G55A,0.688
22,T49G G55T,0.243
23,T54A,0.828

row,Variant,fraction ligated
1,T54C,0.846
2,T54G,0.807
3,A57T,0.844
4,A57G,0.822
5,A57C,0.814
6,G55C A57T,0.632
7,G55C A57C,0.412
8,G55C A57G,0.773
9,G55T A56C A57T,0.0111
10,G55T A56C A57C,0.00348
11,G55T A56C A57G,0.00397
12,T53A,0.834
13,T53C,0.849
14,T53G,0.831
15,G55C A56T A57T,0.0179
16,G55C A56T A57G,0.0294
17,G55C A56T A57C,0.00477
18,G50C A57T,0.0648
19,G50C A57C,0.033
20,G50C A57G,0.104
21,G50T A57C,0.172
22,G50T A57T,0.324
23,G50T A57G,0.526

row,Variant,fraction ligated
1,A56C,0.767
2,A56T,0.803
3,A56G,0.781
4,G55A A57C,0.786
5,G55A A57G,0.833
6,G55A A57T,0.801
7,G55C A56C A57G,0.0246
8,G55C A56C A57T,0.0335
9,G55C A56C A57C,0.0245
10,G50A A57G,0.251
11,G50A A57C,0.0747
12,G50A A57T,0.216
13,G50A A56G,0.0277
14,G50A A56T,0.0351
15,G50A A56C,0.0252
16,A56T A57T,0.454
17,A56T A57G,0.217
18,A56T A57C,0.0772
19,G55T A56T A57C,0.00568
20,G55T A56T A57G,0.0103
21,G55T A56T A57T,0.0137
22,G55C A56G,0.843
23,G55C A56C,0.218

row,Variant,fraction ligated
1,G55C A56T,0.737
2,G50T G55A,0.455
3,G50T G55T,0.123
4,G50T G55C,0.143
5,A56C A57C,0.447
6,A56C A57T,0.77
7,A56C A57G,0.0212
8,G50T,0.743
9,G50C,0.424
10,G50A,0.589
11,G51A,0.797
12,G51C,0.812
13,G51T,0.792
14,G55A A56C A57C,0.0438
15,G55A A56C A57G,0.0754
16,G55A A56C A57T,0.151
17,G55T A56G A57T,0.0243
18,G55T A56G A57C,0.0609
19,G55T A56G A57G,0.0371
20,unchanged,0.826

# Variants of: B2
# Assay: fraction ligated after 30 min (ligated reads / total reads); higher = more ligase activity
# Details: with F1*subA RNA substrate (template-directed ligation), 42 °C
# Experimental: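 Chip-synthesised pool of minF1 ligase ribozyme variants (single and double substitutions, single to quadruple deletions, bulge and P2 designed variants) was transcribed with T7 and reacted as a pool with excess substrate F1*subA for 30 min at 42 C in 50 mM EPPS pH 8.5, 25 mM MgCl2. Ligated and unligated RNAs were separated by PAGE, barcoded by RT and deep sequenced; fraction ligated = ligated reads / total reads, relative activity = FL / FL of wild-type minF1 (0.76); sequencing FL correlated with PAGE (R2 = 0.98). Sequences are the DNA template of the ribozyme.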
row,Variant,fraction ligated
1,TAGATGAGTGA,0.00265
2,CAGAGGATTGA,0.00276
3,TAGAGGTGTGA A29T,0.00319
4,TAGAGGATTGA,0.00125
5,CAGATGATGTG T23A,0.00584
6,TAAAGGTGTGA A29T,0.0019
7,AAAAGATGTGA T23C A28T A29G,0.00238
8,TAGATGGGTGA,0.00433
9,TAGAGATGTGA T23A A29T,0.00334
10,TAGAGATGTGA T23A A29G,0.00131
11,TAAAGGATTGA T23A A29T,0.00317
12,TAGAGGATTGA A29T,0.00809
13,AAGAGGTGTGA,0.00286
14,CAGATGAGTGA,0.00146
15,CAGATATGTGA T23A,0.00265
16,TAGATGTGTGA,0.00395
17,AAGAGATGTGA A28T A29G,0.00397
18,CAGATGGAGTA G34T,0.00644
19,CAGAGGAGTGA A29T,0
20,TAGAGGATTGA T23A A29T,0.00233
21,AAGAGGATTGA A29T,0.007
22,AAGAGGAGTGA A29T,0.00209
23,GAAAGATGTGA T23A A28T A29G,0.00194
24,TAAAGGATGTG T23A A29T,0.00674
25,AAAAGGTGTGA A29T,0.00306
26,CAAAGGATGTA T23A A29T,0.000678
27,TAAAGGTGTGA T23A A29T,0.00275
28,TCAAGATGTGA T23A A28T A29G,0.00482

row,Variant,fraction ligated
1,ACAAGATGTGA A28T A29G,0.00369
2,TAGAGGATGTA A29T,0.00262
3,CAGAGGATGTA T23A A29T,0.00576
4,CAGATGGAGTA T23A G34T,0.00843
5,CAGAGATGTGA T23A,0.00241
6,AAAAGATGTGA A29T,0.00419
7,AAAAGATGTGA A29G,0.00274
8,TCAAGGAGTGA,0.000917
9,TAGATGATGTG T23A,0.00386
10,CAGATGGAGTA T23A,0.00106
11,CAGAGATGTGA T23A A29T,0.00283
12,CAGAGATGTGA T23A A29G,0.00348
13,AAGAGGATGTG,0.00366
14,AAGAGGATGTA,0.000999
15,TAGAGATGTGA A28T A29G,0.00491
16,CAGAGGATGTG,0.00526
17,CAGAGGATGTA,0.000794
18,TAGATGGATGA T23A,0.00368
19,ACAAGATGTGA A29T,0.0029
20,ACAAGATGTGA A29G,0.0031
21,CAGATGGATGA T23A,0.00203
22,TAAAGGATGTG A29T,0.00445
23,ACAAGATGTGA,0.00207
24,TAGATGATGTA T23A,0.00397
25,CAGAGATGTGA A28T A29G,0.00451
26,TAGATGGTGTA,0.00141
27,TAGATGGTGTG,0.0042
